The text below walks through data of publication PMC314469, “Protein Interaction Networks by Proteome Peptide Scanning” (PLoS Biology, 2004).

For test [1], the target named is T1, amphyphisin SH3 (AMPH_HUMAN), P49418.
T1 chain: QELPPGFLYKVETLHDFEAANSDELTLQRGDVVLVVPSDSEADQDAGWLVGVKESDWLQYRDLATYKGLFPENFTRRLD
Put plainly: SPOT array.

The target of test [2] is endophilin SH3 (SH3G2_HUMAN), Q99962. The test can be described thus: SPOT array.

Consider FSSVPSKPPMSLEP [Q96E32 219-233], for which the results for the normalised SPOT signal, Boehringer light units (BLU); mean over the file's lines of this peptide in test [1] and in test [2] were 30.1 and 35.9, respectively.
On to FNRYLSRPRRVEMA [O43365 212-225], for which the results for the normalised SPOT signal, Boehringer light units (BLU); mean over the file's lines of this peptide in test [1] and in test [2] were 336 and 204, respectively.
On to FPTVPTRPEKGYIW [Q99995 108-121], for which the results for the normalised SPOT signal, Boehringer light units (BLU); mean over the file's lines of this peptide in test [1] and in test [2] were 562 and 425, respectively.
Taken in the same sequence, the figures for FSHLLRRPPPEAPR [O76081 86-99] were 172 and 5220.
For the molecule FSFSLPRPGRRGSR [O00538 575-588], the normalised SPOT signal, Boehringer light units (BLU); mean over the file's lines of this peptide in test [1] was 1090; in test [2] it was 2080.
Turning to GAARLGRPGRSSLP [P34925 3-16], the normalised SPOT signal, Boehringer light units (BLU); mean over the file's lines of this peptide in test [1] and in test [2] was 129 each time.
Turning to FVLRPLRPSRRYST [Q14539 22-35], the normalised SPOT signal, Boehringer light units (BLU); mean over the file's lines of this peptide turned out to be 10100 in test [1] and 18800 in test [2].
Consider FWQSPKRPPSPIKF [Q9H3T7 733-747], for which the normalised SPOT signal, Boehringer light units (BLU); mean over the file's lines of this peptide in test [1] amounted to 349; in test [2], 12400.
Consider FVSPPNRPFRSKND [Q07954 3693-3706], for which the figures for the normalised SPOT signal, Boehringer light units (BLU); mean over the file's lines of this peptide in test [1] and in test [2] were 3720 and 224, respectively.
As for FSESLKRPWEDDPP [Q9Y384 121-134], the normalised SPOT signal, Boehringer light units (BLU); mean over the file's lines of this peptide is 58.5 in test [1] and 35.3 in test [2].
Turning to FQEFLKRPDHKQDF [Q9C093 551-564], the normalised SPOT signal, Boehringer light units (BLU); mean over the file's lines of this peptide in test [1] and in test [2] was 32.9 in each case.
FSSFLKRPKSQVSE [P11171 83-96]: the normalised SPOT signal, Boehringer light units (BLU); mean over the file's lines of this peptide in test [1] was 37.5; in test [2], 51.3.
The corresponding values for FRRLPTRPRKGGPE [Q9NXF8 292-305] are 340 and 1540.
Regarding FVTELRRPVAVRAK [Q9NW72 376-389], the results for the normalised SPOT signal, Boehringer light units (BLU); mean over the file's lines of this peptide in test [1] and in test [2] were 39.9 and 117, respectively.
Turning to AKDLLRRPFDLMLV [Q9BZW5 208-221], the normalised SPOT signal, Boehringer light units (BLU); mean over the file's lines of this peptide in test [1] is 31.3; in test [2] it was 71.1.
As for FTKTIKRPFGVKYN [P17752 389-402], the normalised SPOT signal, Boehringer light units (BLU); mean over the file's lines of this peptide in test [1] was 22.4; in test [2] it was 61.9.
Regarding FTGPPQKPPRLGAQ [Q14289 851-865], the figures for the normalised SPOT signal, Boehringer light units (BLU); mean over the file's lines of this peptide in test [1] and in test [2] were 2710 and 76.1, respectively.
For the molecule FVNEIRRPNGENYA [Q9UBW7 1125-1138], the normalised SPOT signal, Boehringer light units (BLU); mean over the file's lines of this peptide in test [1] is 23.8; in test [2], 12.8.
For the molecule FVYNFIRPVKGKVS [Q9NUW7 10-23], the normalised SPOT signal, Boehringer light units (BLU); mean over the file's lines of this peptide is 190 in test [1] and 122 in test [2].
Turning to FYYRPPRPPKGASK [P46527 86-100], the values for the normalised SPOT signal, Boehringer light units (BLU); mean over the file's lines of this peptide in test [1] and in test [2] were 3820 and 4600, respectively.
As to FSHILKRPDRVLLI [P33076 484-497], the normalised SPOT signal, Boehringer light units (BLU); mean over the file's lines of this peptide in test [1] was determined as 879; in test [2], 292.
Taken in the same sequence, the figures for FVTELRRPDAVRTK [Q9NQ90 781-794] were 38.2 and 43.1.
Turning to FVLVPLRPPSPARS [O75055 1510-1524], the normalised SPOT signal, Boehringer light units (BLU); mean over the file's lines of this peptide turned out to be 1620 in test [1] and 17300 in test [2].
FYRDLRRPFSAPDA [Q9HB63 378-391]: the normalised SPOT signal, Boehringer light units (BLU); mean over the file's lines of this peptide in test [1] was 53.3; in test [2] it was 175.
Taken in the same sequence, the figures for FTDLPKKPPPPEVT [Q96QH2 75-89] were 88 and 59.2.
The corresponding values for FRGSFRRPDNLSLA [Q9Y4B7 288-301] are 74.9 and 109.
Regarding AKINLKRPPTAGSQ [Q9HA08 198-211], the normalised SPOT signal, Boehringer light units (BLU); mean over the file's lines of this peptide in test [1] worked out at 0; in test [2], 59.
Taken in the same sequence, the figures for FRRVLLRPSRRVRS [P32745 324-337] were 5790 and 889.
